Reference: patent US20240117018A1

Legend:
Experiment in all cases: cell-based or functional assay
[1] = molecular target: HIV-1 Env pseudovirus Du156.12 (HIV-1)
[2] = molecular target: HIV-1 Env pseudovirus 249M B10 (HIV-1)
[3] = molecular target: HIV-1 Env pseudovirus 6240_08_TA5_4622 (HIV-1)
[4] = molecular target: HIV-1 Env pseudovirus CAP210.2.00.E8 (HIV-1)
[5] = molecular target: HIV-1 Env pseudovirus CNE20 (HIV-1)
[6] = molecular target: HIV-1 Env pseudovirus SC422661.8 (HIV-1)
[7] = molecular target: HIV-1 Env pseudovirus CNE17 (HIV-1)
[8] = molecular target: HIV-1 Env pseudovirus 62357_14_D3_4589 (HIV-1)
[9] = molecular target: HIV-1 Env pseudovirus Ce703010054_2A2 (HIV-1)
[10] = molecular target: HIV-1 Env pseudovirus PVO.4 (HIV-1)
[11] = molecular target: HIV-1 Env pseudovirus TRJO4551.58 (HIV-1)
[12] = molecular target: HIV-1 Env pseudovirus ZM249M.PL1 (HIV-1)
[13] = molecular target: HIV-1 Env pseudovirus Q461.e2 (HIV-1)
[14] = molecular target: HIV-1 Env pseudovirus CAAN5342.A2 (HIV-1)
[15] = molecular target: Env of HIV-1 pseudovirus HIV-0013095-2.11 (HIV-1)
[16] = molecular target: Env of HIV-1 pseudovirus 0260.v5.c36 (HIV-1)
[17] = molecular target: Env of HIV-1 pseudovirus 246F C1G (HIV-1)
[18] = molecular target: Env of HIV-1 pseudovirus HIV-16055-2.3 (HIV-1)
[19] = molecular target: Env of HIV-1 pseudovirus 1056_10_TA11_1826 (HIV-1)
[20] = molecular target: Env of HIV-1 pseudovirus ZM233M.PB6 (HIV-1)
[21] = molecular target: Env of HIV-1 pseudovirus 1012_11_TC21_3257 (HIV-1)
[22] = molecular target: Env of HIV-1 pseudovirus 6535.3 (HIV-1)
[23] = molecular target: Env of HIV-1 pseudovirus CNE17 (HIV-1)
[24] = molecular target: Env of HIV-1 pseudovirus PVO.4 (HIV-1)
[25] = molecular target: Env of HIV-1 pseudovirus MS208.A1 (HIV-1)
[26] = molecular target: Env of HIV-1 pseudovirus Ce703010054_2A2 (HIV-1)
[27] = molecular target: Env of HIV-1 pseudovirus CNE52 (HIV-1)
[28] = molecular target: Env of HIV-1 pseudovirus Ce0682_E4 (HIV-1)
[29] = molecular target: Env of HIV-1 pseudovirus CAAN5342.A2 (HIV-1)
[30] = molecular target: Env of HIV-1 pseudovirus 62357_14_D3_4589 (HIV-1)
[31] = molecular target: Env of HIV-1 pseudovirus 7030102001E5(Rev-) (HIV-1)

N49P11 (antibody)
IC50 [1]: 2.4 µg/mL | IC80 [1]: 12 µg/mL | MPI [1]: 100 | IC50 [2]: 3.54 µg/mL | IC80 [2]: 12.9 µg/mL | MPI [2]: 100 | IC50 [3]: 0.72 µg/mL | IC80 [3]: 3 µg/mL | MPI [3]: 100 | IC50 [4]: 5.12 µg/mL | IC80 [4]: 19.4 µg/mL | MPI [4]: 100 | IC50 [5]: 5.19 µg/mL | IC80 [5]: 22.6 µg/mL | MPI [5]: 100 | IC50 [6]: 0.729 µg/mL | IC80 [6]: 3.49 µg/mL | MPI [6]: 100 | IC50 [7]: 6.68 µg/mL | IC80 [7]: 25.6 µg/mL | MPI [7]: 100 | IC50 [8]: 0.599 µg/mL | IC80 [8]: 3.56 µg/mL | MPI [8]: 100 | IC50 [9]: 1.42 µg/mL | IC80 [9]: 7.51 µg/mL | MPI [9]: 100 | IC50 [10]: 0.248 µg/mL | IC80 [10]: 1.17 µg/mL | MPI [10]: 100 | IC50 [11]: 0.183 µg/mL | IC80 [11]: 0.656 µg/mL | MPI [11]: 100 | IC50 [12]: 3.64 µg/mL | IC80 [12]: 17.4 µg/mL | MPI [12]: 100 | IC50 [13]: 0.363 µg/mL | IC80 [13]: 2.15 µg/mL | MPI [13]: 100 | IC50 [14]: 9.03 µg/mL | IC80 [14]: 20.8 µg/mL | MPI [14]: 100

10E8 (antibody)
IC50 [15]: 0.031 µg/mL | IC80 [15]: 0.213 µg/mL | IC50 [16]: > 10 µg/mL | IC80 [16]: > 10 µg/mL | IC50 [17]: 2.22 µg/mL | IC80 [17]: 9.94 µg/mL | IC50 [18]: 0.722 µg/mL | IC80 [18]: 6.5 µg/mL | IC50 [19]: 0.134 µg/mL | IC80 [19]: 1.03 µg/mL | IC50 [20]: 0.442 µg/mL | IC80 [20]: 2.39 µg/mL | IC50 [21]: 0.244 µg/mL | IC80 [21]: 4.21 µg/mL | IC50 [22]: 0.081 µg/mL | IC80 [22]: 1.32 µg/mL | IC50 [23]: 1.11 µg/mL | IC80 [23]: 5.25 µg/mL | IC50 [24]: 0.747 µg/mL | IC80 [24]: > 10 µg/mL | IC50 [25]: 0.609 µg/mL | IC80 [25]: 3.72 µg/mL | IC50 [26]: 2.3 µg/mL | IC80 [26]: 8.58 µg/mL | IC50 [27]: 0.304 µg/mL | IC80 [27]: 3.06 µg/mL | IC50 [28]: 1.22 µg/mL | IC80 [28]: 7.71 µg/mL | IC50 [29]: 1.28 µg/mL | IC80 [29]: 9.28 µg/mL | IC50 [30]: 0.119 µg/mL | IC80 [30]: 1.06 µg/mL | IC50 [31]: 6.71 µg/mL | IC80 [31]: > 10 µg/mL

10-1074 (antibody)
IC50 [15]: > 50 µg/mL | IC80 [15]: > 50 µg/mL | IC50 [16]: 0.099 µg/mL | IC80 [16]: 0.16 µg/mL | IC50 [17]: 0.022 µg/mL | IC80 [17]: 0.111 µg/mL | IC50 [18]: > 50 µg/mL | IC80 [18]: > 50 µg/mL | IC50 [19]: 0.038 µg/mL | IC80 [19]: 0.272 µg/mL | IC50 [20]: 0.06 µg/mL | IC80 [20]: 0.349 µg/mL | IC50 [21]: 0.008 µg/mL | IC80 [21]: 0.059 µg/mL | IC50 [22]: 0.014 µg/mL | IC80 [22]: 0.026 µg/mL | IC50 [23]: 2.69 µg/mL | IC80 [23]: 13.3 µg/mL | IC50 [24]: 0.074 µg/mL | IC80 [24]: 0.36 µg/mL | IC50 [25]: > 50 µg/mL | IC80 [25]: > 50 µg/mL | IC50 [26]: > 50 µg/mL | IC80 [26]: > 50 µg/mL | IC50 [27]: 1.23 µg/mL | IC80 [27]: 13.1 µg/mL | IC50 [28]: > 50 µg/mL | IC80 [28]: > 50 µg/mL | IC50 [29]: 0.007 µg/mL | IC80 [29]: 0.036 µg/mL | IC50 [30]: > 50 µg/mL | IC80 [30]: > 50 µg/mL | IC50 [31]: 0.006 µg/mL | IC80 [31]: 0.021 µg/mL
